Results reported in patent publication US20070077617.
Where a chain is given by its changes, count along the chain named. In names and notes the source's numbering stands.

Sequence of fusion protein PRY (chain, as listed by the source): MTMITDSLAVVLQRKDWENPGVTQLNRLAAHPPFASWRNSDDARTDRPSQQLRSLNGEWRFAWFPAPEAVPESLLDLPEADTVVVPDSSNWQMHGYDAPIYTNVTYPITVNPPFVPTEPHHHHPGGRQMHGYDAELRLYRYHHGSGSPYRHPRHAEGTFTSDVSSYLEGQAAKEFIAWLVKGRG
Sequence of fusion protein PRQ (chain, as listed by the source): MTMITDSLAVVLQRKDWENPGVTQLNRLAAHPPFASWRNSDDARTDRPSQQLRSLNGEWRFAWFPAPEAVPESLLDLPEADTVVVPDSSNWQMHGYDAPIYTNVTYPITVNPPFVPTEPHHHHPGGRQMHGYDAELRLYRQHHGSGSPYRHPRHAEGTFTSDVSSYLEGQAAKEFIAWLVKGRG
Sequence of fusion protein PRC (chain, as listed by the source): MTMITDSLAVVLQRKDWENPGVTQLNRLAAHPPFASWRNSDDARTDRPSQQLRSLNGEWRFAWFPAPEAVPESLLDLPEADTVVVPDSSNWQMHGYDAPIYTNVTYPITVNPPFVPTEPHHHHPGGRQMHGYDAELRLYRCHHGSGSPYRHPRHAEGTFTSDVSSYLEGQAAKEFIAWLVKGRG
Sequence of fusion protein PRE (chain, as listed by the source): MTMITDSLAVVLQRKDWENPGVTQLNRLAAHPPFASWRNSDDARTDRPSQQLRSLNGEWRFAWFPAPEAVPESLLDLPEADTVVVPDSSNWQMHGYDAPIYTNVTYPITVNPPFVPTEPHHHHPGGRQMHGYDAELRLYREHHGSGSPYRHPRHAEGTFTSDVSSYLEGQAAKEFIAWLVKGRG
Sequence of fusion protein PRM (chain, as listed by the source): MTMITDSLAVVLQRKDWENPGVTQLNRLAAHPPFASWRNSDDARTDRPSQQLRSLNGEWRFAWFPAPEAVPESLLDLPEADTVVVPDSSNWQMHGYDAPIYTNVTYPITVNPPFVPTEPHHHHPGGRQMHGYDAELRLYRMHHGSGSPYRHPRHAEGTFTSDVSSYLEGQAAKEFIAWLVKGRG
Sequence of fusion protein PRG (chain, as listed by the source): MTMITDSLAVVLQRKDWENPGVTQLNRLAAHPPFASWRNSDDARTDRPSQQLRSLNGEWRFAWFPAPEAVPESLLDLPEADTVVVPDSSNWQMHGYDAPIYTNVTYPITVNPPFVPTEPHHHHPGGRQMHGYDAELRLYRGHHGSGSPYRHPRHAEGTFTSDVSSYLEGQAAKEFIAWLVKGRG
Sequence of fusion protein PRH (chain, as listed by the source): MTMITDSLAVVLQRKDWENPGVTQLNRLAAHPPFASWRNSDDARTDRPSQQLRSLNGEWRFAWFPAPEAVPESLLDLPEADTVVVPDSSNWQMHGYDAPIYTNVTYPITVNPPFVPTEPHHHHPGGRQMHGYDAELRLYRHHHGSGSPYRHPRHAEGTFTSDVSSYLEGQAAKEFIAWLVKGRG
Sequence of fusion protein PRK (chain, as listed by the source): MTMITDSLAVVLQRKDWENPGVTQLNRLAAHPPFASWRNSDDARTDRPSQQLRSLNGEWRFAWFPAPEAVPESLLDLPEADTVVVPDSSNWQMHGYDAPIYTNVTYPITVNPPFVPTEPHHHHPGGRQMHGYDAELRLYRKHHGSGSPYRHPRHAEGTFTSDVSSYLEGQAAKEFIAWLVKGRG
Sequence of fusion protein PRT (chain, as listed by the source): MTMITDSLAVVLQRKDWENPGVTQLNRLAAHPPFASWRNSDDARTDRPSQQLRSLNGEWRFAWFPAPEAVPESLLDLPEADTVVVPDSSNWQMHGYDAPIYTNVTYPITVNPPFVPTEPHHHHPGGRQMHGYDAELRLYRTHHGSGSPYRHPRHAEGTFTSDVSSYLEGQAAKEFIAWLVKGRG
Sequence of fusion protein PRF (chain, as listed by the source): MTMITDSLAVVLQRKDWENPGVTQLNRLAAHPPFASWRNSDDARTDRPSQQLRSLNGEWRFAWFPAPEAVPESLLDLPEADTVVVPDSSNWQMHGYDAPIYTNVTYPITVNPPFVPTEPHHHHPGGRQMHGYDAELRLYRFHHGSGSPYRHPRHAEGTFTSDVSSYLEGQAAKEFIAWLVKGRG
Sequence of fusion protein PRR (chain, as listed by the source): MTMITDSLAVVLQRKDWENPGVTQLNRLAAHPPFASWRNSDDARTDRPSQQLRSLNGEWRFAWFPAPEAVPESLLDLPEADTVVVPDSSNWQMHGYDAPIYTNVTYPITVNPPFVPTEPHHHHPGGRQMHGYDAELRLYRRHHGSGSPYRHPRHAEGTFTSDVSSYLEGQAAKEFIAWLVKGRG
Sequence of fusion protein PRW (chain, as listed by the source): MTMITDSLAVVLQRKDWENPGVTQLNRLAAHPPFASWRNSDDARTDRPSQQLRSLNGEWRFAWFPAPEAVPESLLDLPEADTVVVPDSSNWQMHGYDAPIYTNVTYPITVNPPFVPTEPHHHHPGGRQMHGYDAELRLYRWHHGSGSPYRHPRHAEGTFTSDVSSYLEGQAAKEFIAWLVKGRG
Sequence of fusion protein PRS (chain, as listed by the source): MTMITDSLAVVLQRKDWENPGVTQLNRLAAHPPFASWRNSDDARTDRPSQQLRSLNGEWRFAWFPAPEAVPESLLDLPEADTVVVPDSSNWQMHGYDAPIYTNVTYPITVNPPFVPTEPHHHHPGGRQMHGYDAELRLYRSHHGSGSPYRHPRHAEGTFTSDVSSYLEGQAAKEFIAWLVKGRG
Sequence of fusion protein PRA (chain, as listed by the source): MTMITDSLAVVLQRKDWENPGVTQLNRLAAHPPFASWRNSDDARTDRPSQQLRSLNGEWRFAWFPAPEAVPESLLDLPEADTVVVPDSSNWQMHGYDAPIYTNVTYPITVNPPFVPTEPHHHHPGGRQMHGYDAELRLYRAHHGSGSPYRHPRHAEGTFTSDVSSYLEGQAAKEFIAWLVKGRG
Sequence of fusion protein PRD (chain, as listed by the source): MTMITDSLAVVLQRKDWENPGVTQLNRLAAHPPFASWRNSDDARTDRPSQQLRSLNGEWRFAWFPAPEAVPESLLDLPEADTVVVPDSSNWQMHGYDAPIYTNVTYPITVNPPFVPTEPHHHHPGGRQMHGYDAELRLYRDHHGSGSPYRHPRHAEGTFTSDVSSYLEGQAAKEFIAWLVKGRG
Sequence of fusion protein PRL (chain, as listed by the source): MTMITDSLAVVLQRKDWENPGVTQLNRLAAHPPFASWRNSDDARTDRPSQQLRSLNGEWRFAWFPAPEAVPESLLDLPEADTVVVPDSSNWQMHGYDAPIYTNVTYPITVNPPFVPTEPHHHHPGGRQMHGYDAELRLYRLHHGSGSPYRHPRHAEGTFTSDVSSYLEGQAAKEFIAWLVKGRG
Sequence of fusion protein PRI (chain, as listed by the source): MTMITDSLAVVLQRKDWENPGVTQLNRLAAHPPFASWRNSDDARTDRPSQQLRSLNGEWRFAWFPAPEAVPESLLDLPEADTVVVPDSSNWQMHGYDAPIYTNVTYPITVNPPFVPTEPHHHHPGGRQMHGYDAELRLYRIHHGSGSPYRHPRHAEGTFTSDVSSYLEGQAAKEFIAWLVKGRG
Sequence of fusion protein PRN (chain, as listed by the source): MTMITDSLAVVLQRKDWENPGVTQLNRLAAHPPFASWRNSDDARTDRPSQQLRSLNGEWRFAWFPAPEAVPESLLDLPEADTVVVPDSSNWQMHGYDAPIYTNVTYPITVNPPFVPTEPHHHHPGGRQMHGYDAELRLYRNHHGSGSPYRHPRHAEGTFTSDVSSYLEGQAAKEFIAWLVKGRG

B1: OmpT protease variant OmpT D97F (protein)
chain: STETLSFTPDNINADISLGTLSGKTKERVYLAEEGGRKVSQLDWKFNNAAIIKGAINWDLMPQISIGAAGWTTLGSRGGNMVDQDWMDSSNPGTWTFESRHPDTQLNYANEFDLNIKGWLLNEPNYRLGLMAGYQESRYSFTARGGSYIYSSEEGFRDDIGSFPNGERAIGYKQRFKMPYIGLTGSYRYEDFELGGTFKYSGWVESSDNDEHYDPGKRITYRSKVKDQNYYSVAVNAGYYVTPNAKVYVEGAWNRVTNKKGNTSLYDHNNNTSDYSKNGAGIENYNFITTAGLKYTF
B1 was tested, and the relative cleavage efficiency (fusion protein PRS) was less than 3%, the relative cleavage efficiency (fusion protein PRI) was less than 3% and the relative cleavage efficiency (fusion protein PRD) was “less than 3%”. The relative cleavage efficiency (fusion protein PRG) was “less than 3%”, the relative cleavage efficiency (fusion protein PRR) was less than 3% and the relative cleavage efficiency (fusion protein PRL) was “less than 3%”. For the same protein, the relative cleavage efficiency (fusion protein PRY) was less than 3%, the relative cleavage efficiency (fusion protein PRT) was less than 3% and the relative cleavage efficiency (fusion protein PRW) was “less than 3%”. It also gave a relative cleavage efficiency (fusion protein PRK) of less than 3%, a relative cleavage efficiency (fusion protein PRC) of less than 3% and a relative cleavage efficiency (fusion protein PRF) of less than 3%. For the same protein, the relative cleavage efficiency (fusion protein PRE) was “less than 3%”, the relative cleavage efficiency (fusion protein PRA) was 3.1% and the relative cleavage efficiency (fusion protein PRH) was “less than 3%”. The relative cleavage efficiency (fusion protein PRQ) was “less than 3%”, the relative cleavage efficiency (fusion protein PRN) was less than 3% and the relative cleavage efficiency (fusion protein PRM) was less than 3%. For the same protein, the relative cleavage efficiency (fusion protein PRP) was “less than 3%”.

B2: OmpT protease variant OmpT D97S (protein)
chain: B1 chain with F97S
B2 was tested, and the relative cleavage efficiency (fusion protein PRS) was less than 3%, the relative cleavage efficiency (fusion protein PRI) was less than 3% and the relative cleavage efficiency (fusion protein PRD) was “less than 3%”. The relative cleavage efficiency (fusion protein PRG) was “less than 3%”, the relative cleavage efficiency (fusion protein PRR) was less than 3% and the relative cleavage efficiency (fusion protein PRL) was “less than 3%”. The relative cleavage efficiency (fusion protein PRY) was less than 3%, the relative cleavage efficiency (fusion protein PRT) was less than 3% and the relative cleavage efficiency (fusion protein PRW) was “less than 3%”. For the same protein, the relative cleavage efficiency (fusion protein PRK) was less than 3%, the relative cleavage efficiency (fusion protein PRC) was 3.1% and the relative cleavage efficiency (fusion protein PRF) was less than 3%. For the same protein, the relative cleavage efficiency (fusion protein PRE) was “less than 3%”, the relative cleavage efficiency (fusion protein PRA) was 4% and the relative cleavage efficiency (fusion protein PRH) was “less than 3%”. The relative cleavage efficiency (fusion protein PRQ) was “less than 3%”, the relative cleavage efficiency (fusion protein PRN) was less than 3% and the relative cleavage efficiency (fusion protein PRM) was less than 3%. For the same protein, the relative cleavage efficiency (fusion protein PRP) was “less than 3%”.

B3: OmpT protease variant OmpT D97T (protein)
chain: B1 chain with F97T
With B3 the relative cleavage efficiency (fusion protein PRS) was 7.4%, the relative cleavage efficiency (fusion protein PRI) was less than 3% and the relative cleavage efficiency (fusion protein PRD) was “less than 3%”. The relative cleavage efficiency (fusion protein PRG) was “less than 3%”, the relative cleavage efficiency (fusion protein PRR) was less than 3% and the relative cleavage efficiency (fusion protein PRL) was “less than 3%”. For the same protein, the relative cleavage efficiency (fusion protein PRY) was less than 3%, the relative cleavage efficiency (fusion protein PRT) was less than 3% and the relative cleavage efficiency (fusion protein PRW) was “less than 3%”. The relative cleavage efficiency (fusion protein PRK) was less than 3%, the relative cleavage efficiency (fusion protein PRC) was 4.6% and the relative cleavage efficiency (fusion protein PRF) was 3.7%. For the same protein, the relative cleavage efficiency (fusion protein PRE) was “less than 3%”, the relative cleavage efficiency (fusion protein PRA) was 6.8% and the relative cleavage efficiency (fusion protein PRH) was “less than 3%”. For the same protein, the relative cleavage efficiency (fusion protein PRQ) was “less than 3%”, the relative cleavage efficiency (fusion protein PRN) was less than 3% and the relative cleavage efficiency (fusion protein PRM) was less than 3%. For the same protein, the relative cleavage efficiency (fusion protein PRP) was “less than 3%”.

B4: OmpT protease variant OmpT D97C (protein)
chain: B1 chain with F97C
In the case of B4, the relative cleavage efficiency (fusion protein PRS) is reported as 5.6%, the relative cleavage efficiency (fusion protein PRI) is reported as less than 3% and the relative cleavage efficiency (fusion protein PRD) is reported as “less than 3%”. For the same protein, the relative cleavage efficiency (fusion protein PRG) was “less than 3%”, the relative cleavage efficiency (fusion protein PRR) was 4% and the relative cleavage efficiency (fusion protein PRL) was “less than 3%”. For the same protein, the relative cleavage efficiency (fusion protein PRY) was less than 3%, the relative cleavage efficiency (fusion protein PRT) was less than 3% and the relative cleavage efficiency (fusion protein PRW) was “less than 3%”. For the same protein, the relative cleavage efficiency (fusion protein PRK) was 3.9%, the relative cleavage efficiency (fusion protein PRC) was 4.8% and the relative cleavage efficiency (fusion protein PRF) was 4.6%. The relative cleavage efficiency (fusion protein PRE) was “less than 3%”, the relative cleavage efficiency (fusion protein PRA) was 6.2% and the relative cleavage efficiency (fusion protein PRH) was “less than 3%”. For the same protein, the relative cleavage efficiency (fusion protein PRQ) was “less than 3%”, the relative cleavage efficiency (fusion protein PRN) was less than 3% and the relative cleavage efficiency (fusion protein PRM) was less than 3%. The relative cleavage efficiency (fusion protein PRP) was “less than 3%”.

B5: OmpT protease variant OmpT D97N (protein)
chain: B1 chain with F97N
In the case of B5, the relative cleavage efficiency (fusion protein PRS) is reported as 4.1%, the relative cleavage efficiency (fusion protein PRI) is reported as less than 3% and the relative cleavage efficiency (fusion protein PRD) is reported as “less than 3%”. The relative cleavage efficiency (fusion protein PRG) was “less than 3%”, the relative cleavage efficiency (fusion protein PRR) was less than 3% and the relative cleavage efficiency (fusion protein PRL) was “less than 3%”. The relative cleavage efficiency (fusion protein PRY) was less than 3%, the relative cleavage efficiency (fusion protein PRT) was less than 3% and the relative cleavage efficiency (fusion protein PRW) was “less than 3%”. For the same protein, the relative cleavage efficiency (fusion protein PRK) was less than 3%, the relative cleavage efficiency (fusion protein PRC) was less than 3% and the relative cleavage efficiency (fusion protein PRF) was less than 3%. The relative cleavage efficiency (fusion protein PRE) was “less than 3%”, the relative cleavage efficiency (fusion protein PRA) was 3.8% and the relative cleavage efficiency (fusion protein PRH) was “less than 3%”. The relative cleavage efficiency (fusion protein PRQ) was “less than 3%”, the relative cleavage efficiency (fusion protein PRN) was less than 3% and the relative cleavage efficiency (fusion protein PRM) was less than 3%. The relative cleavage efficiency (fusion protein PRP) was “less than 3%”.

B6: OmpT protease variant OmpT D97Q (protein)
chain: B1 chain with F97Q
B6 was tested, and the relative cleavage efficiency (fusion protein PRS) was 4.4%, the relative cleavage efficiency (fusion protein PRI) was less than 3% and the relative cleavage efficiency (fusion protein PRD) was “less than 3%”. The relative cleavage efficiency (fusion protein PRG) was “less than 3%”, the relative cleavage efficiency (fusion protein PRR) was less than 3% and the relative cleavage efficiency (fusion protein PRL) was “less than 3%”. The relative cleavage efficiency (fusion protein PRY) was less than 3%, the relative cleavage efficiency (fusion protein PRT) was less than 3% and the relative cleavage efficiency (fusion protein PRW) was “less than 3%”. It also gave a relative cleavage efficiency (fusion protein PRK) of less than 3%, a relative cleavage efficiency (fusion protein PRC) of 4.1% and a relative cleavage efficiency (fusion protein PRF) of less than 3%. The relative cleavage efficiency (fusion protein PRE) was “less than 3%”, the relative cleavage efficiency (fusion protein PRA) was 4% and the relative cleavage efficiency (fusion protein PRH) was “less than 3%”. For the same protein, the relative cleavage efficiency (fusion protein PRQ) was “less than 3%”, the relative cleavage efficiency (fusion protein PRN) was less than 3% and the relative cleavage efficiency (fusion protein PRM) was less than 3%. The relative cleavage efficiency (fusion protein PRP) was “less than 3%”.

B7: OmpT protease variant OmpT D97E (protein)
chain: B1 chain with F97E
With B7 the relative cleavage efficiency (fusion protein PRS) was 7.2%, the relative cleavage efficiency (fusion protein PRI) was less than 3% and the relative cleavage efficiency (fusion protein PRD) was “less than 3%”. The relative cleavage efficiency (fusion protein PRG) was “less than 3%”, the relative cleavage efficiency (fusion protein PRR) was 49% and the relative cleavage efficiency (fusion protein PRL) was “less than 3%”. For the same protein, the relative cleavage efficiency (fusion protein PRY) was less than 3%, the relative cleavage efficiency (fusion protein PRT) was less than 3% and the relative cleavage efficiency (fusion protein PRW) was “less than 3%”. It also gave a relative cleavage efficiency (fusion protein PRK) of 39%, a relative cleavage efficiency (fusion protein PRC) of 6.9% and a relative cleavage efficiency (fusion protein PRF) of 3.4%. For the same protein, the relative cleavage efficiency (fusion protein PRE) was “less than 3%”, the relative cleavage efficiency (fusion protein PRA) was 6.5% and the relative cleavage efficiency (fusion protein PRH) was “less than 3%”. The relative cleavage efficiency (fusion protein PRQ) was “less than 3%”, the relative cleavage efficiency (fusion protein PRN) was less than 3% and the relative cleavage efficiency (fusion protein PRM) was less than 3%. For the same protein, the relative cleavage efficiency (fusion protein PRP) was “less than 3%”.

B8: OmpT protease variant OmpT D97A (protein)
chain: B1 chain with F97A
B8 was tested, and the relative cleavage efficiency (fusion protein PRS) was less than 3%, the relative cleavage efficiency (fusion protein PRI) was less than 3% and the relative cleavage efficiency (fusion protein PRD) was “less than 3%”. The relative cleavage efficiency (fusion protein PRG) was “less than 3%”, the relative cleavage efficiency (fusion protein PRR) was less than 3% and the relative cleavage efficiency (fusion protein PRL) was “less than 3%”. For the same protein, the relative cleavage efficiency (fusion protein PRY) was less than 3%, the relative cleavage efficiency (fusion protein PRT) was less than 3% and the relative cleavage efficiency (fusion protein PRW) was “less than 3%”. The relative cleavage efficiency (fusion protein PRK) was less than 3%, the relative cleavage efficiency (fusion protein PRC) was less than 3% and the relative cleavage efficiency (fusion protein PRF) was less than 3%. The relative cleavage efficiency (fusion protein PRE) was “less than 3%”, the relative cleavage efficiency (fusion protein PRA) was 3.8% and the relative cleavage efficiency (fusion protein PRH) was “less than 3%”. For the same protein, the relative cleavage efficiency (fusion protein PRQ) was “less than 3%”, the relative cleavage efficiency (fusion protein PRN) was less than 3% and the relative cleavage efficiency (fusion protein PRM) was less than 3%. The relative cleavage efficiency (fusion protein PRP) was “less than 3%”.

B9: OmpT protease variant OmpT D97V (protein)
chain: B1 chain with F97V
For B9, the relative cleavage efficiency (fusion protein PRS) was “less than 3.0%”, the relative cleavage efficiency (fusion protein PRI) was “less than 3.0%” and the relative cleavage efficiency (fusion protein PRD) was “less than 3.0%”. The relative cleavage efficiency (fusion protein PRG) was “less than 3.0%”, the relative cleavage efficiency (fusion protein PRR) was “less than 3.0%” and the relative cleavage efficiency (fusion protein PRL) was “less than 3.0%”. For the same protein, the relative cleavage efficiency (fusion protein PRY) was “less than 3.0%”, the relative cleavage efficiency (fusion protein PRT) was “less than 3.0%” and the relative cleavage efficiency (fusion protein PRW) was “less than 3.0%”. The relative cleavage efficiency (fusion protein PRK) was “less than 3.0%”, the relative cleavage efficiency (fusion protein PRC) was “less than 3.0%” and the relative cleavage efficiency (fusion protein PRF) was “less than 3.0%”. For the same protein, the relative cleavage efficiency (fusion protein PRE) was “less than 3.0%”, the relative cleavage efficiency (fusion protein PRA) was “less than 3.0%” and the relative cleavage efficiency (fusion protein PRH) was “less than 3.0%”. For the same protein, the relative cleavage efficiency (fusion protein PRQ) was “less than 3.0%”, the relative cleavage efficiency (fusion protein PRN) was “less than 3.0%” and the relative cleavage efficiency (fusion protein PRM) was “less than 3.0%”. The relative cleavage efficiency (fusion protein PRP) was “less than 3.0%”.

B10: OmpT protease variant OmpT D97I (protein)
chain: B1 chain with F97I
For B10, the relative cleavage efficiency (fusion protein PRS) was “less than 3.0%”, the relative cleavage efficiency (fusion protein PRI) was “less than 3.0%” and the relative cleavage efficiency (fusion protein PRD) was “less than 3.0%”. The relative cleavage efficiency (fusion protein PRG) was “less than 3.0%”, the relative cleavage efficiency (fusion protein PRR) was “less than 3.0%” and the relative cleavage efficiency (fusion protein PRL) was “less than 3.0%”. For the same protein, the relative cleavage efficiency (fusion protein PRY) was “less than 3.0%”, the relative cleavage efficiency (fusion protein PRT) was “less than 3.0%” and the relative cleavage efficiency (fusion protein PRW) was “less than 3.0%”. The relative cleavage efficiency (fusion protein PRK) was “less than 3.0%”, the relative cleavage efficiency (fusion protein PRC) was “less than 3.0%” and the relative cleavage efficiency (fusion protein PRF) was “less than 3.0%”. The relative cleavage efficiency (fusion protein PRE) was “less than 3.0%”, the relative cleavage efficiency (fusion protein PRA) was “less than 3.0%” and the relative cleavage efficiency (fusion protein PRH) was “less than 3.0%”. The relative cleavage efficiency (fusion protein PRQ) was “less than 3.0%”, the relative cleavage efficiency (fusion protein PRN) was “less than 3.0%” and the relative cleavage efficiency (fusion protein PRM) was “less than 3.0%”. For the same protein, the relative cleavage efficiency (fusion protein PRP) was “less than 3.0%”.
